# In patent publication US20260042834A1 (HBM ALPHA THERAPEUTICS, published 2026):
# Changes are numbered by the printed parent chain. Values joined by “and” are separate entries in the source; they are usually repeats but may differ in a detail not shown here. Equal entries are not always repeated.
# B1: PR302341-34 (antibody, human IgG1, kappa, V domains shown)
# VH: QVQLVQSGAEVKKPGASVKVSCKASGYTFTDYFMKWVRQAPGQGLEWMGVINPNQGDIFYNQKFKGRVTMTVDKSISTAYMELSRLRSDDTAVYYCARGTDRALFAYWGQGTLVTVSS
# VL: DVVMTQSPLSLPVTLGQPASISCRSGQSIVHSDANTYLEWYQQRPGQSPRLLIYKVSNRFSGVPDRFSGSGSGTDFTLKISRVEAEDLGVYYCFQGSHIPWTFGGGTKVEIKR
# notes: Humanized, PTM-removed variant of PR302341
# B2: PR302309-8 (antibody, human IgG1, kappa, V domains shown)
# VH: QIQLVQSGSELKKPGASVKVSCKASGYTFTNYGMNWVRQAPGQGLEWMGWINTYTGEPIYTDDFKGRFVFSLDTSVSTAYLQISSLKAEDTAVYYCSRSTMITTGGVFAYWGQGTLVTVSS
# VL: B1 VL with G26S, S28T, A34G, I99V
# notes: Humanized variant of PR302309
# B3: PR302341-34 (antibody, human IgG1, kappa, V domains shown)
# VH: B1 VH
# VL: B1 VL
# notes: as for B1
# B4: PR302341-48 (antibody, human IgG1, kappa, V domains shown)
# VH: B1 VH with I76T, R85S, D89E
# VL: B1 VL with S7T, L11S, S48P, S72A
# notes: as for B1
# B5: PR302309-11 (antibody, human IgG1, kappa, V domains shown)
# VH: B2 VH
# VL: DIVMTQTPLSSPVTLGQPASISCRSSQTIVHSDGNTYLEWLQQRPGQPPRLLIYKVSNRFSGVPDRFSGSGAGTDFTLKISRVEAEDVGVYYCFQGSHVPWTFGGGTKVEIKR
# notes: Humanized variant of PR302309
# B6: PR302341-60 (antibody, human IgG1, kappa, V domains shown)
# VH: B1 VH with G44R, M70I, V72R, K74T, I76A, R85S, D89E
# VL: B1 VL
# notes: as for B1
# B7: PR302341-28 (antibody, human IgG1, kappa, V domains shown)
# VH: B1 VH
# VL: B1 VL with A34G
# notes: as for B1
# B8: PR302341-28 (antibody, human IgG1, kappa, V domains shown)
# VH: B1 VH
# VL: B1 VL with A34G
# notes: as for B1
# B9: PR006669 (antibody, human IgG1, kappa, V domains shown)
# VH: EVQLVESGGGLVQPGGSLRLSCAASGFTFSDNWMSWVRQAPGKGLEWVANIKQDGSENYYVDSVKGRFTISRDNAKNSLYLQMNSLRAEDTAVYYCSRGLALWGWGQGTLVTVSS
# VL: DIVMTHSPLSLPVTPGDPASISCRSSQSLLHSTGYNYLDWYLQKPGQSPQLLIYLGSNRASGVPDRFSGSGSGTDFTLKFIRVEAEDVGVYYCMQALQTPYTFGQGTKLEIKR
# B10: PR006745 (antibody, human IgG1, kappa, V domains shown)
# VH: B9 VH with G55A
# VL: B9 VL
# B11: PR004290 (antibody, human IgG1, kappa, V domains shown)
# VH: EVQLVESGGVLVQPGGSLRLSCAASGFTFSSYWMTWVRQAPGKGLEWVANIKQDGSEKYYVDSVKGRFTISRDNAKNSLFLQMNSLRAEDTAVYYCARTLIFDYWGQGTLVTVSS
# VL: B9 VL with H6Q, D17E, Y37S, D39E, F80I, I81S, V90I, A96T, Y101I, K108R
# notes: Series 1; human IgG1 wildtype Fc; also called Hybridoma Clone 28b3
# B12: PR004290 (antibody, human IgG1, kappa, V domains shown)
# VH: B11 VH
# VL: B9 VL with H6Q, D17E, Y37S, D39E, F80I, I81S, V90I, A96T, Y101I, K108R
# notes: Series 1; human IgG1 wildtype Fc; also called hybridoma clone 28b3
# B13: PR006746 (antibody, human IgG1, kappa, V domains shown)
# VH: B9 VH with G55S
# VL: B9 VL
# B14: PR005660 (antibody, human IgG1, kappa, V domains shown)
# VH: B11 VH with D54E
# VL: DIVMTQSPLSLPVTPGEPASISCRSSQSLLHSTGYQSLEWYLQKPGQSPQLLIYLGSNRASGVPDRFSGSGSGTDFTLKISRVEAEDVGIYYCMQTLQTPITFGQGTRLEIKR
# notes: ΔPTM variant of PR004290
# B15: PR302064 (antibody, human IgG1, kappa, V domains shown)
# VH: EMQLVESGGGLVKPGGSLRLSCAASGFTFSNYWMNWVRQAPGKGLEWVAEIRLKSNNYATHYAESVKGRFTISRDDSKSTVYLQMNSLKTEDTAVYYCTVGTLVYWGQGTLVTVSS
# VL: DIVLTQSPDSLAVSLGERATINCRASQSVSTSTYNYMHWFQQKPGQPPKLLIKFASNLESGVPDRFSGSGSGTDFTLTISSLQAEDTAVYYCQHSWEIPYTFGQGTKLEIKR
# notes: Humanized variant of PR301777; human IgG1-WT-Fc
# B16: PR303394 (antibody, human IgG1, kappa, V domains shown)
# VH: EVQLQQSGPELVKPGVSMKISCKASGYSFTDSTMNWVKQSHGKNLEWIGLIHPDNGGTIYNQKFKGKATLTVHKSSSTAYMELLSLTSEDSAVYYCANGFAYWGQGTLVTVSA
# VL: DVVMTQTPLSLPVSLGDQASISCRSSQSLLHSNGNTYLHWYLQKPGQSPELLIYKVSNRFSGVPDRFSGSGSGTDFTLKISRVEAEDLGVYFCSQSTHVPLTFGAGTKLELKR
# notes: also called analog of CTRND05
# Columns and labels:
# human UCN2 peptide [1] = target: T1, human UCN2 peptide (human, UniProt Q96RP3 72-109, limits assumed, not fully specified; biotin at N- or C-terminus in the ELISA); test: ELISA, biotinylated hUCN2 on streptavidin plates
# T1 construct: also called hUCN2; hUCN2 (NT Biotin)
# T1 peptide (looked up): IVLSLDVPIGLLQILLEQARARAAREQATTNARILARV
# Experimental: (§1) Streptavidin (Thermo, Cat: 21125) was diluted in PBS with a concentration of 2 μg/mL. 100 μL of diluted streptavidin was added per well to ELISA microplates, and the plates were incubated overnight at 4° C. Plates were blocked with ELISA blocking solution (containing 2% w/v BSA, 0.05% (v/v) Tween-20, pH 7.4 PBS buffer) at 37° C. for 1 hour, and then incubated with either 1 μg/mL hUCN1 (NT Biotin), hUCN1 (CT Biotin), hUCN2 (NT Biotin), hUCN2 (CT Biotin), hUCN3 (NT Biotin), or hUCN3 (CT Biotin) for 1 hour at 37° C. […] 100 μl of TMB Substrate (Biopanda, Cat: TMB-S-003) was added, and the plates were incubated at room temperature for 15 minutes. 100 μL of ELISA stopping solution (Solarbio, Cat #: C1058) was then added to terminate the reaction, and the OD450 nm was determined by an ELISA plate reader (Molecular Devices, Spectra max 384 plus).
# human UCN3 peptide = target: T2, human UCN3 peptide (human, UniProt Q969E3 120-157, not fully specified; biotin at N- or C-terminus in the ELISA); test: ELISA, biotinylated hUCN3 on streptavidin plates
# T2 construct: also called hUCN3; hUCN3 (NT Biotin)
# T2 peptide (looked up): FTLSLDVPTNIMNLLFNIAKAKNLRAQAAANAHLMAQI
# Experimental: as §1
# [2] = target: T3, corticotropin-releasing hormone (CRH) peptide (human and mouse, not fully specified); test: cell-based or functional assay
# T3 peptide: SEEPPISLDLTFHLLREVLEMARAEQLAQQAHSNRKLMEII
# human UCN1 peptide = target: T4, human UCN1 peptide (human, UniProt P55089 83-122); test: cell-based or functional assay
# T4 peptide (looked up): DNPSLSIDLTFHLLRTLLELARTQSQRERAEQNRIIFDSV
# biotinylated CRH = target: T5, biotinylated CRH (human and mouse, not fully specified; biotinylated, position not stated); test: Octet BLI, biotinylated CRH on SA sensor
# T5 construct: also called Biotin-CRH; biotin-labeled CRH
# T5 peptide: T3 peptide
# Experimental: Octet® Red 96e was used for affinity measurement. Octet® running buffer was prepared by diluting kinetics buffer 10× (Fortebio, Cat #18-1105) in PBS according to the manufacturer's instructions. Two columns of SA sensors (Fortebio, Cat #18-5019) were hydrated in running buffer for 10 mins, one for ligand capturing and the other for reference. Antibodies were 2-fold diluted and added into a 96-well plate. […] After a 60-second baseline step, sensors were dipped into analyte and buffer wells successively, with the association and dissociation time of 180 seconds and 800 seconds, respectively. […] Signals of reference wells and reference sensors were subtracted by selecting “Double reference” before data fitting.
# CRH (NT Biotin) = target: T6, CRH (NT Biotin) (human and mouse, not fully specified; biotin at the N-terminus); test: ELISA, biotin peptide on streptavidin plate
# T6 peptide: T3 peptide
# Experimental: (§2) Streptavidin (Thermo, Cat: 21125) was diluted in PBS to a concentration of 2 μg/ml. 100 μl of diluted streptavidin was added per well to ELISA microplates, and the plates were incubated overnight at 4° C. […] 100 μL of 3,3′,5,5′-tetramethylbenzidine (TMB) substrate (Biopanda, Cat: TMB-S-003) was added, and the plates were incubated at room temperature for 15 minutes. 100 μL of ELISA stopping solution (Solarbio, Cat #: C1058) was added to terminate the reaction, and the optical density at 450 nm (OD450 nm) was determined by an ELISA plate reader (Molecular Devices, Spectra max 384 plus).
# CRH (CT Biotin) = target: T7, CRH (CT Biotin) (human and mouse, C-terminal K-Biotin); test: ELISA, biotin peptide on streptavidin plate
# T7 construct: also called Peptide 4 (CRH-Biotin)
# T7 peptide: T3 peptide
# Experimental: as §2
# hUCN1 (NT Biotin) = target: T8, hUCN1 (NT Biotin) (human, UniProt P55089 83-122, biotin at the N-terminus); test: ELISA, biotin peptide on streptavidin plate
# T8 construct: also called human UCN1 (NT biotin)
# T8 peptide (looked up): T4 peptide (looked up)
# Experimental: as §2
# hUCN1 (CT Biotin) = target: T9, hUCN1 (CT Biotin) (human, UniProt P55089 83-122, biotin at the C-terminus); test: ELISA, biotin peptide on streptavidin plate
# T9 construct: also called human UCN1 (CT biotin)
# T9 peptide (looked up): T4 peptide (looked up)
# Experimental: as §2
# human UCN2 peptide [3] = target: T1, human UCN2 peptide; test: ELISA on streptavidin-captured hUCN2 (NT biotin) and hUCN2 (CT biotin), mAb at 100 nM and 10 nM; axis labelled RLU, scale 0-4
# Experimental: as §1
# [4] = target: T10, corticotropin-releasing hormone (CRH) peptide (human and mouse (same sequence), not fully specified); test: cell-based or functional assay
# T10 peptide: T3 peptide
binder,measurement,setting,value
B1,binding result,human UCN2 peptide [1],no binding (tested: 100 nM)
same,binding result,human UCN3 peptide,no binding (tested: 100 nM)
B2,binding result,human UCN2 peptide [1],no binding (tested: 100 nM)
same,binding result,human UCN3 peptide,no binding (tested: 100 nM)
B3,CHO-CRE-hCRHR1 0.5 nM CRH IC50,[2],0.616 nM
same,CHO-CRE-hCRHR1 1 nM hUCH1 IC50,human UCN1 peptide,21.9 nM and 30 nM
same,Kd,biotinylated CRH,< 0.001 nM
same,EC50,CRH (NT Biotin),0.025 nM and 0.038 nM
same,EC50,CRH (CT Biotin),0.027 nM
same,EC50,hUCN1 (NT Biotin),0.019 nM and 0.016 nM
same,EC50,hUCN1 (CT Biotin),0.03 nM and 0.022 nM
same,binding result,human UCN2 peptide [3],no binding (tested: 100 nM)
B4,binding result,human UCN2 peptide [1],no binding (tested: 100 nM)
same,binding result,human UCN3 peptide,no binding (tested: 100 nM)
B5,binding result,human UCN2 peptide [1],no binding (tested: 100 nM)
same,binding result,human UCN3 peptide,no binding (tested: 100 nM)
B6,binding result,human UCN2 peptide [1],no binding (tested: 100 nM)
same,binding result,human UCN3 peptide,no binding (tested: 100 nM)
B7,CHO-CRE-hCRHR1 0.5 nM CRH IC50,[2],0.267 nM
same,CHO-CRE-hCRHR1 1 nM hUCH1 IC50,human UCN1 peptide,33 nM
same,hUCN1 IC50/ CRH IC50,human UCN1 peptide,124 fold
same,Kd,biotinylated CRH,< 0.001 nM
same,koff,biotinylated CRH,< 1e-07 s⁻¹
same,kon,biotinylated CRH,2.63e+06 M⁻¹ s⁻¹
same,EC50,CRH (NT Biotin),0.052 nM
same,EC50,CRH (CT Biotin),0.037 nM
same,EC50,hUCN1 (NT Biotin),0.026 nM
same,EC50,hUCN1 (CT Biotin),0.032 nM
same,binding result,human UCN2 peptide [3],no binding (tested: 100 nM)
B8,binding result,human UCN2 peptide [1],no binding (tested: 100 nM)
same,binding result,human UCN3 peptide,no binding (tested: 100 nM)
B9,hCRHR1 Luciferase Reporter Assay IC50,[4],7.38 nM
same,mCrhr1 Luciferase Reporter Assay IC50,[4],28.9 nM
B10,hCRHR1 Luciferase Reporter Assay IC50,[4],13.2 nM
same,mCrhr1 Luciferase Reporter Assay IC50,[4],76.2 nM
B11,CHO-CRE-hCRHR1 0.5 nM CRH IC50,[2],5.41 nM and 3.49 nM
same,EC50,CRH (NT Biotin),0.05 nM
same,EC50,CRH (CT Biotin),0.065 nM
same,EC50,hUCN1 (NT Biotin),1.59 nM
same,EC50,hUCN1 (CT Biotin),> 1 nM
B12,binding result,human UCN2 peptide [1],no binding (tested: 100 nM)
same,binding result,human UCN3 peptide,no binding (tested: 100 nM)
B13,hCRHR1 Luciferase Reporter Assay IC50,[4],10 nM
same,mCrhr1 Luciferase Reporter Assay IC50,[4],46.4 nM
B14,binding result,human UCN2 peptide [1],no binding (tested: 100 nM)
same,binding result,human UCN3 peptide,no binding (tested: 100 nM)
B15,binding result,human UCN2 peptide [1],no binding (tested: 100 nM)
same,binding result,human UCN3 peptide,no binding (tested: 100 nM)
B16,binding result,human UCN2 peptide [1],no binding (tested: 100 nM)
same,binding result,human UCN3 peptide,no binding (tested: 100 nM)
